Assay results from patent publication US8440804B2, “Polypeptides having modulatory effects on cells” (Ecole Normale Superieure de Lyon, priority 2006, dated 2013).
Changes are numbered by the printed parent chain.

Tests used:
Hela cells = test: Colony formation assay (cell proliferation assay, crystal violet); format: cell-based; settings: continuous expression 2 weeks, compared to AptaLib and human thioredoxin
Method: (§1) (B) Colony formation assays. Hela or MCF-7 cells were transfected with plasmids directing the stable expression of the Cdk inhibitor p21, a library of peptide aptamers from pBK1 (AptaLib), Human thioredoxin (HTRX), and peptide aptamers R7G44, R5G42, R5G52. The cells were cultured for two weeks and the colonies were stained with crystal violet.
(§2) The inventors wished to establish the antiproliferative activity of these peptide aptamers using alternative cellular models and a non-retroviral vector to express individually each aptamer. They cloned the aptamer coding genes into a vector bearing a hygromycin selection marker. They also subcloned the pBK1 library into this vector, to create “AptaLib”. They continuously expressed the aptamers, the empty thioredoxin scaffold or AptaLib in Hela and MCF-7 cells for 2 weeks and they stained the cells that grew. […] These aptamers may originate from the remaining background of slowly proliferating cells during the seventh screening iteration, independently of the expressed aptamers. […] This could be due to the fact that the CMTMR assay is more sensitive in detecting modest antiproliferative effects than the colony formation assay or that some peptide aptamers somehow enhance the CMTMR labeling of their host cells.
(§3) To stably express peptide aptamers in mammalian cells, the episomal eukaryotic expression vector pCEP4 that bears a CMV promoter and a hygromycin selection marker (InVitrogen) was used. Aptamer coding sequences were PCR amplified using the oligonucleotides
(§4) that contained a stop codon. The PCR products were digested with NheI and NotI and ligated into NheI/NotI-cut pCEP4 to create pEA-aptamer plasmids. 3×10^5 cells/well were plated in 6-well plates and transfected 24 h after using Jet PEI (Qbiogen), 3.7 μg pEA-aptamer plasmids and 0.3 μg pEGFP-C1 (Clontech) to monitor transfection. Hygromycin (InVitrogen) was added at 200 μg/ml two days later and the cells were cultured for 2 weeks, renewing the medium twice a week. The cells were then rinsed in PBS and were fixed and stained by incubating 30 min in crystal violet (0.05% crystal violet, 20% ethanol, 0.37% formaldehyde). Excess crystal violet was removed by washing with water. In Vitro Phosphatase Assay

MCF-7 cells = test: as above; format: cell-based; settings: MCF-7, continuous expression 2 weeks, compared to AptaLib and human thioredoxin
Method: as §1, §2, §3, §4

CNA = test: Yeast two-hybrid assay; format: binding, human; settings: mating assay, LexA-aptamer fusions
From the text: (A) Yeast two-hybrid mating assay. TB50α yeast were co-transformed with pSH18-34T (bearing a lacZ reporter gene) and plasmids directing the expression of LexA alone or in fusion with peptide aptamers R5G42, R7G44 or R5G52. MB210a yeast were transformed with the selected cDNA library plasmids directing the expression of CNAβ, CNAγ, and NS5ATP2 truncated proteins. To obtain negative controls, MB210a yeast were also transformed with the empty prey plasmid (pJG4-5) and with pJG4-5 directing the expression of Ras and FKBP12 prey proteins. To obtain a positive control, MB210a yeast were transformed with pJG4-5 directing the expression of RG22 peptide aptamer prey fusion protein that interacts with LexA in the context of most LexA fusion proteins.
The inventors set out to map the R5G42 binding site on CNA. The CNA interacting clones selected in the yeast two-hybrid experiments corresponded to the carboxy-terminal regions of the beta and gamma isoforms, encompassing the calmodulin-binding domain and the auto-inhibitory domain (see FIG. 3B). […] The LexA-R5G52 bait protein may thus not be properly expressed and/or folded in this yeast two-hybrid setting.
(§5) The inventors explored the ability of R5G42 mutants having a one amino acid change as compared to R5G42, to bind to CNA beta and gamma C-Terminal fragments (FIG. 3b) and to NS5A-TP2. To this end, they proceeded to yeast-two hybrid assays as in example 3. CNA beta and gamma C-Terminal fragments (FIG. 3b) and NS5A-TP2 were cloned in three different plasmids (pSH18-34, pJK103 and pRB18-40), which differed from each other in the level of sensitivity of their promoter to the bait/prey complex formation, pSH18-34 having the highest sensitivity and pRB18-40 having the lowest.
The 5′ end of RH6 (upper case) matches part of the HA epitope tag and the 5′ ends of RH4, RH3 and RH7 (upper case) match the 5′ extremity of the ADH terminator. The PCR reactions was performed using pCMV-SPORT6-CnAβ as a template. CnAβCter Δ1, Δ2, CaM were constructed by combining oligonucleotides RH6/RH4, RH6/RH3, RH6/RH7, respectively. […]

[1] = tested on: Raw1 cells (osteoclasts precursors); test: Raw cell differentiation assay (osteoclast differentiation); format: cell-based
From the text: Trx, CNA* and Peptide aptamers R5G42, C2, C7, C8 and N9 were transfected into RAW1 cells and left for four days in absence of the normal differentiation factor RANKL. CNA* is activated calcineurin A which elicits a robust differentiation response.
The inventors assessed the ability of some CNA-specific peptide aptamers to promote osteoclast differentiation via the activation of CNA. […] The differentiation state was then observed 4 days post-transfection.
Raw1 cells were transfected with the following plasmids: pCI-HA-Trx (negative control), pCI-HA CNA* (positive control for differentiation activation), pCI-HA R5G42, pCI-HA R5G42-C2, pCI-HA R5G42-C7, pCI-HA R5G42-C8 and pCI-HA R5G42-N9. The sequence of CNA* is the same as that of CNA8 (see FIG. 17, SEQ ID 42). The sequences of the R5G42 (SEQ ID 22), C2 (SEQ ID 23), C7 (SEQ ID 27), C8 (SEQ ID 28) and N9 (SEQ ID 33) aptamers is shown on FIG. 8.
One day before the transfection, Raw I cells were plated in 6-well dishes at 50 cell/mm^2. Transfection was performed with FuGene 6 Reagent (Roche) using 2 μg of each plasmid and following supplier recommendations.
8 h after transfection D-MEM was changed with α-MEM. In the control dishes α-MEM+50 ng/ml RANKL was added. After 2 days, medium was changed with a fresh medium. The differentiation state was then observed 4 days post-transfection.

[2] = tested on: CNA gamma C-terminal fragment; test: Yeast two-hybrid assays of R5G42 mutants; format: binding, human; settings: plasmids pSH18-34, pJK103, pRB18-40
Sequence of CNA gamma C-terminal fragment (P48454 386-512 limits assumed): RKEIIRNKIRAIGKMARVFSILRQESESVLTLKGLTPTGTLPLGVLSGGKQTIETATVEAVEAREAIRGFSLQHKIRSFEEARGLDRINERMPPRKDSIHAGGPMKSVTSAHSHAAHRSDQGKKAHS
Method: (§6) The capacity of R5G42 mutants having a one amino acid change as compared to R5G42 to bind CNA beta and gamma C-Terminal fragments (FIG. 3b) and NS5A-TP2 was tested in yeast two-hybrid assays. CNA beta and gamma C-Terminal fragments and NS5A-TP2 were cloned in three different vectors (pSH18-34, pJK103 and pRB18-40). These three plasmids differ from each other in the level of sensitivity of their promoter, pSH18-34 having the highest sensitivity and pRB18-40 having the lowest.
as §5

[3] = molecular target: T1, CNA beta C-terminal fragment (Homo sapiens, UniProt P16298); test: Yeast two-hybrid assays of R5G42 mutants; format: binding; settings: plasmids pSH18-34, pJK103, pRB18-40
T1 construct: expressed in transfected cells; host or cells: yeast (MB210a transformed with library plasmid, mated with bait strain)
Method: as §6, §5

NS5A-TP2 = molecular target: T2, NS5A-TP2 (Homo sapiens, UniProt Q7Z4H3); test: Further yeast two-hybrid binding assays (higher sensitivity)
T2 construct: expressed in transfected cells; host or cells: yeast
T2 sequence (Q7Z4H3 1-204): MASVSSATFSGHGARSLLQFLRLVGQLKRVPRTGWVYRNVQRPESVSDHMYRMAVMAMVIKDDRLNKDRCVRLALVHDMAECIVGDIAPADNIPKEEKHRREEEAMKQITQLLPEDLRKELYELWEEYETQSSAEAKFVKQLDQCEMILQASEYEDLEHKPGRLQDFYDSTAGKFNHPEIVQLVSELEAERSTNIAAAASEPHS
From the text: FIG. 14. Specificity of aptamers according to the invention for CNA and NS5A-TP2 Interaction matrix between peptide aptamers R5G42, C2, C7, C8, N9, R5G44 and R5G52 with CNA constructs CNA1-CNA8 (A) CNA9-11 (B) and NS5A-TP2 (C). An interaction phenotype between CNA3/CNA 11, which both contain the Calmodulin binding domain (CaM) and the auto-inhibitory domain (Al) but not the CNB binding domain (CNB) and the aptamers R5G42, C2, C7, C8 and N9 is observed in a two-hybrid assay. R5G44 and R5G52 aptamers recognize neither the CNA fragments, nor NS5A-TP2. Only aptamers R5G42 and N9 recognize NS5A-TP2.
The inventors proceeded to further yeast two-hybrid binding assays between peptide aptamers R5G42 (SEQ ID 22), C2 (SEQ ID 23), C7 (SEQ ID 27), C8 (SEQ ID 28), N9 (SEQ ID 33), R5G44 and R5G52 with CNA constructs CNA1-CNA8 (FIG. 14A), CNA9-CNA11 (FIG. 14B) and NS5A-TP2 (SEQ ID 15) (FIG. 14C). The sensitivity of this yeast two-hybrid assay was higher than in the experiment reported above.

[4] = 4 days post-transfection, absence of RANKL

Molecule: R7G11: peptide aptamer: variable region LHLAGRGWEN in human thioredoxin (SEQ ID 30) (Aptamer variable sequence of R7G11)
- inhibition of cell proliferation (colony formation) (Hela cells): did not inhibit cell proliferation
- inhibition of cell proliferation (colony formation) (MCF-7 cells): did not inhibit cell proliferation

Molecule: R7G44: peptide aptamer: variable region HQSTIGVAEF in human thioredoxin (SEQ ID 31); control without antiproliferative effect
- inhibition of cell proliferation (colony formation) (Hela cells): did not exert any antiproliferative effect
- inhibition of cell proliferation (colony formation) (MCF-7 cells): did not exert any antiproliferative effect
- yeast two-hybrid interaction phenotype with CNA (CNA): did not show an interaction phenotype

B1: receptor activator of nuclear factor (NF)-κB ligand (protein, UniProt O14788 140-317, looked up)
Tumor necrosis factor ligand …: IRAEKAMVDGSWLDLAKRSKLEAQPFAHLTINATDIPSGSHKVSLSSWYHDRGWAKISNMTFSNGKLIVNQDGFYYLYANICFRHHETSGDLATEYLQLMVYVTKTSIKIPSSHTLMKGGSTKYWSGNSEFHFYSINVGGFFKLRSGEEISIEVSNPSLLDPDQDATYFGAFKVRDID
notes: TNF family cytokine, normal osteoclast differentiation factor
- osteoclast differentiation ([1]; control conditions, 50 ng/ml RANKL): differentiated into osteoclasts

B2: C2: R5G42 mutant having a one amino acid change (SEQ ID 23) (protein)
chain: MVKQIESKTAFQEALDAAGDKLVVVDFSATWCGPSAVTFAVCALGPCKMIKLFFHSLSEKYSNVIFLEVDVDDCQDVASECEVKCMPTFQFFKKGQKVGEFSGANKEKLEATINELV
modifications: Aptamer R5G42 mutant C2
- osteoclast differentiation [1, 4]: no osteoclasts fully differentiated were detectable
- yeast two-hybrid interaction [2]: shown to interact
- yeast two-hybrid interaction [3]: shown to interact
- recognition of NS5A-TP2 (NS5A-TP2): only aptamers which recognized NS5A-TP2 were R5G42 and N9

B3: C7: R5G42 mutant having a one amino acid change (SEQ ID 27) (protein)
chain: B2 chain with L22P, L52P
modifications: Aptamer R5G42 mutant C7
- osteoclast differentiation [1, 4]: Some cells with the osteoclast phenotype can be observed
- yeast two-hybrid interaction [2]: shown to interact
- yeast two-hybrid interaction [3]: shown to interact
- recognition of NS5A-TP2 (NS5A-TP2): only aptamers which recognized NS5A-TP2 were R5G42 and N9

B4: C8: R5G42 mutant having a one amino acid change (SEQ ID 28) (protein)
chain: B2 chain with F39I, L52P
modifications: Aptamer R5G42 mutant C8
- osteoclast differentiation [1, 4]: no osteoclasts fully differentiated were detectable
- yeast two-hybrid interaction [2]: shown to interact
- yeast two-hybrid interaction [3]: shown to interact
- recognition of NS5A-TP2 (NS5A-TP2): only aptamers which recognized NS5A-TP2 were R5G42 and N9
